Consider one molecule from patent US20250073347A1 (FORTVITA BIOLOGICS SINGAPORE PTE, published 2025).

In this test the target is T1, human Claudin18.2 on cells (human, UniProt P56856-2 1-261).
T1 construct: whole, on cells; also called CLDN18.2; hCLDN18.2
Put plainly: flow cytometry on DANG-hCLDN18.2 cells, relative MFI (fold). (In general: Flow cytometry measures light scatter and fluorescence of single cells or particles in a stream.)

Method: The cells were centrifuged at 500 g for 5 min, and the cell medium was removed. […] The suspension was left to stand on ice for 30 min. The suspension was centrifuged at 500 g for 5 min, the supernatant was removed, and the cells were washed once with PBS. The goat anti-human Fc PE-labeled secondary antibody (SouthemBiotech, J2815-5H87B) was added at 100 µL/well. The resulting mixture was incubated on ice in the dark for 30 min. The mixture was centrifuged at 500 g for 5 min, the supernatant was removed, and the cells were washed once with PBS. The cells were resuspended in 50 μL of 1×PBS, and the suspension was loaded for FACS assay.

B1: IEX019-02 (HB37A6-SYNtecan E conjugate) (antibody, human IgG1, kappa, V domains shown)
VH: EVQLLDSGGGLVQPGGSLRLSCAASGFTFSSYVMSWVRQAPGKGLNWVSTISHSGGSTYYADSVKGRFTISRDNSKNTLYLQMNSLRAEDTAVYYCAIDAPYYDILTGYRYWGQGTLVTVSS
VL: not shown
modifications: GlcNAc(Fuc)-6-N3-GalNAc at Asn297 conjugated to linker-payload compound 1 (cleavable linker, 2 exatecan); average DAR 3.52
notes: also called SYN-HB37A6-Ex
Turning to B1, the binding result is given as “binds”.
